Test in all cases: cell-based or functional assay
In assay [1] the target is human GLP-1 receptor (GLP-1R) (human, UniProt P43220 24-463).
Target sequence in this assay (P43220 24-463): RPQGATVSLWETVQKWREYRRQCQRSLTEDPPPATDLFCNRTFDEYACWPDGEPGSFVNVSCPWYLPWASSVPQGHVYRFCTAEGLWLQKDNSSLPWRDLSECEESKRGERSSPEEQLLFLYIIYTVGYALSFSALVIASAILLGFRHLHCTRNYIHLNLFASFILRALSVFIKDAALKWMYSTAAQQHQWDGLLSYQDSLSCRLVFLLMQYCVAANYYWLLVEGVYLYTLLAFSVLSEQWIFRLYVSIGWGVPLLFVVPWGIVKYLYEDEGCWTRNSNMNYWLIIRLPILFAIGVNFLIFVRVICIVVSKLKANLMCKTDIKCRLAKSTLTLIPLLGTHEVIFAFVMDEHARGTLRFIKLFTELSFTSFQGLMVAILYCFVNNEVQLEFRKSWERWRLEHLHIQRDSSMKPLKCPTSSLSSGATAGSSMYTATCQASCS
Assay [2] deals with human glucagon receptor (GCGR) (human, UniProt P47871 26-477).
For assay [3] the target is unchanged. The source holds these as a separate data set.
Assay [4] addresses human GLP-1 receptor (GLP-1R) (human, UniProt P43220 24-463). The source holds these as a separate data set.
Target sequence in this assay (P43220 24-463): as above

Where no end group is shown, it is not given here. [ ]: non-standard residue; d: D form. Aib = CC(C)(N)C(=O)O Some results are limits rather than exact numbers.

B1: Compound A103 (peptide)
peptide: YSHGTFTSDYSKYLD[Aib]ARAQEFV[Aib]WLEDEPSSGAPPPS-OH
modifications: N-terminus assumed
SMILES: CC(C)C[C@H](NC(=O)[C@H](Cc1ccc(O)cc1)NC(=O)[C@H](CCCCN)NC(=O)[C@H](CO)NC(=O)[C@H](Cc1ccc(O)cc1)NC(=O)[C@H](CC(=O)O)NC(=O)[C@H](CO)NC(=O)[C@@H](NC(=O)[C@H](Cc1ccccc1)NC(=O)[C@@H](NC(=O)CNC(=O)[C@H](Cc1c[nH]cn1)NC(=O)[C@H](CO)NC(=O)[C@@H](N)Cc1ccc(O)cc1)[C@@H](C)O)[C@@H](C)O)C(=O)N[C@@H](CC(=O)O)C(=O)NC(C)(C)C(=O)N[C@@H](C)C(=O)N[C@@H](CCCNC(=N)N)C(=O)N[C@@H](C)C(=O)N[C@@H](CCC(N)=O)C(=O)N[C@@H](CCC(=O)O)C(=O)N[C@@H](Cc1ccccc1)C(=O)N[C@H](C(=O)NC(C)(C)C(=O)N[C@@H](Cc1c[nH]c2ccccc12)C(=O)N[C@@H](CC(C)C)C(=O)N[C@@H](CCC(=O)O)C(=O)N[C@@H](CC(=O)O)C(=O)N[C@@H](CCC(=O)O)C(=O)N1CCC[C@H]1C(=O)N[C@@H](CO)C(=O)N[C@@H](CO)C(=O)NCC(=O)N[C@@H](C)C(=O)N1CCC[C@H]1C(=O)N1CCC[C@H]1C(=O)N1CCC[C@H]1C(=O)N[C@@H](CO)C(=O)O)C(C)C
Regarding B1, the “hGLP1 pEC50 (cAMP)” value in assay [1] is < 9 pEC50.

B2: Compound A102 (peptide)
peptide: YSHGTFTSDYSKWLD[Aib]KRAQEFVKWLEDE-OH
modifications: N-terminus assumed
SMILES: CC(C)C[C@H](NC(=O)[C@H](Cc1c[nH]c2ccccc12)NC(=O)[C@H](CCCCN)NC(=O)[C@@H](NC(=O)[C@H](Cc1ccccc1)NC(=O)[C@H](CCC(=O)O)NC(=O)[C@H](CCC(N)=O)NC(=O)[C@H](C)NC(=O)[C@H](CCCNC(=N)N)NC(=O)[C@H](CCCCN)NC(=O)C(C)(C)NC(=O)[C@H](CC(=O)O)NC(=O)[C@H](CC(C)C)NC(=O)[C@H](Cc1c[nH]c2ccccc12)NC(=O)[C@H](CCCCN)NC(=O)[C@H](CO)NC(=O)[C@H](Cc1ccc(O)cc1)NC(=O)[C@H](CC(=O)O)NC(=O)[C@H](CO)NC(=O)[C@@H](NC(=O)[C@H](Cc1ccccc1)NC(=O)[C@@H](NC(=O)CNC(=O)[C@H](Cc1c[nH]cn1)NC(=O)[C@H](CO)NC(=O)[C@@H](N)Cc1ccc(O)cc1)[C@@H](C)O)[C@@H](C)O)C(C)C)C(=O)N[C@@H](CCC(=O)O)C(=O)N[C@@H](CC(=O)O)C(=O)N[C@@H](CCC(=O)O)C(=O)O
B2: the “hGLP1 pEC50 (cAMP)” value in assay [1] was < 9 pEC50.

B3: Compound A81 (peptide)
peptide: YSQGTFTSDYSKYLDSARAQEFVKWLEDEPKSKSPPPS
As for B3, in assay [2], the “hGCGR pEC50 (cAMP)” value was 11 pEC50. Further, the “hGLP1 pEC50 (cAMP)” value in assay [1] was < 9 pEC50.

B4: Compound A82 (peptide)
peptide: YSQGTFTSDYSKYLDSARAQEFVKWLEDEPKSKAPPPS
For B4, the “hGCGR pEC50 (cAMP)” value in assay [2] is 11 pEC50. In addition, the “hGLP1 pEC50 (cAMP)” value in assay [1] was < 9 pEC50.

B5: Compound A84 (peptide)
peptide: YSHGTFTSDYSKYLDSARAQEFVKHLEDEPKSKSPPPS
On to B5, for which, in assay [2], the “hGCGR pEC50 (cAMP)” value amounted to 9.4 pEC50. For the same molecule, the “hGLP1 pEC50 (cAMP)” value in assay [1] was < 9 pEC50.

B6: Compound A83 (peptide)
peptide: YSHGTFTSDYSKYLDSARAQEFTKWLEDEPKSKSPPPS
In the case of B6, the “hGCGR pEC50 (cAMP)” value in assay [2] stood at 10.2 pEC50. Besides, in assay [1], the “hGLP1 pEC50 (cAMP)” value was < 9 pEC50.

B7: Compound A93 (peptide)
peptide: WSQGTFTSDYSKYLD[Aib]KAAQEFV[Aib]WLEDEPSSGKPPPS
On to B7, for which the “hGCGR pEC50 (cAMP)” value in assay [2] stood at 10.9 pEC50. Further, in assay [1], the “hGLP1 pEC50 (cAMP)” value is < 9 pEC50.

B8: Compound A90 (peptide)
peptide: YSHGTFTSDYSKYLD[Aib]KAAQEFV[Aib]WLEDEPSSGKPPPS
As for B8, the “hGCGR pEC50 (cAMP)” value in assay [2] was determined as 13.1 pEC50. Moreover, the “hGLP1 pEC50 (cAMP)” value in assay [1] is < 9 pEC50.

B9: Compound A89 (peptide)
peptide: YSHGTFTSDYSKYLD[Aib]KRAQEFV[Aib]HLEDEPSSGKPPPS
Consider B9, for which the “hGCGR pEC50 (cAMP)” value in assay [2] is 12.7 pEC50. Moreover, the “hGLP1 pEC50 (cAMP)” value in assay [1] is < 9 pEC50.

B10: Compound A87 (peptide)
peptide: YSHGTFTSDYSKYLD[Aib]KRAQEFV[Aib]WLEDEKSSGKPPPS
With B10, in assay [2], the “hGCGR pEC50 (cAMP)” value amounted to 13.6 pEC50. The “hGLP1 pEC50 (cAMP)” value in assay [1] was < 9 pEC50.

B11: Compound A80 (peptide)
peptide: YSHGTFTSDYSKYLDAARAQEFVKWLEDEPKSKSPPPS-NH2
B11: the “hGCGR pEC50 (cAMP)” value in assay [2] turned out to be 12.5 pEC50. In addition, the “hGLP1 pEC50 (cAMP)” value in assay [1] was < 9 pEC50.

B12: Compound A86 (peptide)
peptide: YSQGTFTSDYSKYLD[Aib]KRAQEFV[Aib]WLEDEPSSGKPPPS
For the molecule B12, the “hGCGR pEC50 (cAMP)” value in assay [2] stood at 13.3 pEC50. In addition, in assay [1], the “hGLP1 pEC50 (cAMP)” value is < 9 pEC50.

B13: Compound A91 (peptide)
peptide: WSQGTFTSDYSKYLD[Aib]KRAQEFV[Aib]WLEDEPSSGKPPPS
For the molecule B13, in assay [2], the “hGCGR pEC50 (cAMP)” value is 12.8 pEC50. Moreover, in assay [1], the “hGLP1 pEC50 (cAMP)” value is < 9 pEC50.

B14: Compound A97 (peptide)
peptide: YSHGTFTSDYSKYLDAARAQEFVKWLEDEPSSGAPPPS-OH
As for B14, the “hGCGR pEC50 (cAMP) mean (n = 3): 11 point curve starting at 1 nM” value in assay [3] came to 12.3 pEC50. Also, in assay [4], the “hGLP1 pEC50 (cAMP) mean (n = 3): 11 point curve starting at 1 nM” value is < 9 pEC50.

B15: Compound A88 (peptide)
peptide: YSHGTFTSDYSKYLD[Aib]KRAQEFV[Aib]WLEDEPSSGKKPPS
As to B15, the “hGCGR pEC50 (cAMP)” value in assay [2] was 13.8 pEC50. Moreover, in assay [1], the “hGLP1 pEC50 (cAMP)” value was < 9 pEC50.

B16: Compound A94 (peptide)
peptide: YSQGTFTSDYSKYLD[Aib]KRAQEFV[Aib]WLEDEPSSGAPPPS
As to B16, the “hGCGR pEC50 (cAMP)” value in assay [2] came to 14.1 pEC50. Also, the “hGLP1 pEC50 (cAMP)” value in assay [1] is < 9 pEC50.

B17: Compound A95 (peptide)
peptide: YSQGTFTSDYSKYLD[Aib]KAAQEFV[Aib]WLEDEPSSGAPPPS
For B17, the “hGCGR pEC50 (cAMP)” value in assay [2] was 13.3 pEC50. For the same molecule, the “hGLP1 pEC50 (cAMP)” value in assay [1] is < 9 pEC50.

B18: Compound A92 (peptide)
peptide: WSQGTFTSDYSKYLD[Aib]KAAQEFV[Aib]WLEDEPSSGAPPPS
Regarding B18, the “hGCGR pEC50 (cAMP)” value in assay [2] is 10.7 pEC50. For the same molecule, the “hGLP1 pEC50 (cAMP)” value in assay [1] was < 9 pEC50.

B19: Compound A98 (peptide)
peptide: YSHGTFTSDYTRLLESKRAQEFVKWLEDEPSSGAPPPS-OH
B19: the “hGCGR pEC50 (cAMP) mean (n = 3): 11 point curve starting at 1 nM” value in assay [3] stood at 12.2 pEC50. The “hGLP1 pEC50 (cAMP) mean (n = 3): 11 point curve starting at 1 nM” value in assay [4] is < 9 pEC50.

B20: Compound A101 (peptide)
peptide: YGHGTFTSDHSKYLD[Aib]KRAQEFVKWLEDE-OH
modifications: N-terminus assumed
SMILES: CC(C)C[C@H](NC(=O)[C@H](Cc1c[nH]c2ccccc12)NC(=O)[C@H](CCCCN)NC(=O)[C@@H](NC(=O)[C@H](Cc1ccccc1)NC(=O)[C@H](CCC(=O)O)NC(=O)[C@H](CCC(N)=O)NC(=O)[C@H](C)NC(=O)[C@H](CCCNC(=N)N)NC(=O)[C@H](CCCCN)NC(=O)C(C)(C)NC(=O)[C@H](CC(=O)O)NC(=O)[C@H](CC(C)C)NC(=O)[C@H](Cc1ccc(O)cc1)NC(=O)[C@H](CCCCN)NC(=O)[C@H](CO)NC(=O)[C@H](Cc1c[nH]cn1)NC(=O)[C@H](CC(=O)O)NC(=O)[C@H](CO)NC(=O)[C@@H](NC(=O)[C@H](Cc1ccccc1)NC(=O)[C@@H](NC(=O)CNC(=O)[C@H](Cc1c[nH]cn1)NC(=O)CNC(=O)[C@@H](N)Cc1ccc(O)cc1)[C@@H](C)O)[C@@H](C)O)C(C)C)C(=O)N[C@@H](CCC(=O)O)C(=O)N[C@@H](CC(=O)O)C(=O)N[C@@H](CCC(=O)O)C(=O)O
As to B20, in assay [1], the “hGLP1 pEC50 (cAMP)” value was < 9 pEC50.

B21: Compound A96 (peptide)
peptide: YSQGTFTSDYSKYLD[Aib]KAAQEFV[Aib]WLEDEPSSGKPPPS
With B21, the “hGCGR pEC50 (cAMP)” value in assay [2] was 13 pEC50. Also, the “hGLP1 pEC50 (cAMP)” value in assay [1] was < 9 pEC50.

B22: Compound A85 (peptide)
peptide: YSHGTFTSDYSKYLD[Aib]KRAQEFV[Aib]WLEDEPSSGKPPPS-NH2
modifications: N-terminus assumed
SMILES: CC(C)C[C@H](NC(=O)[C@H](Cc1ccc(O)cc1)NC(=O)[C@H](CCCCN)NC(=O)[C@H](CO)NC(=O)[C@H](Cc1ccc(O)cc1)NC(=O)[C@H](CC(=O)O)NC(=O)[C@H](CO)NC(=O)[C@@H](NC(=O)[C@H](Cc1ccccc1)NC(=O)[C@@H](NC(=O)CNC(=O)[C@H](Cc1c[nH]cn1)NC(=O)[C@H](CO)NC(=O)[C@@H](N)Cc1ccc(O)cc1)[C@@H](C)O)[C@@H](C)O)C(=O)N[C@@H](CC(=O)O)C(=O)NC(C)(C)C(=O)N[C@@H](CCCCN)C(=O)N[C@@H](CCCNC(=N)N)C(=O)N[C@@H](C)C(=O)N[C@@H](CCC(N)=O)C(=O)N[C@@H](CCC(=O)O)C(=O)N[C@@H](Cc1ccccc1)C(=O)N[C@H](C(=O)NC(C)(C)C(=O)N[C@@H](Cc1c[nH]c2ccccc12)C(=O)N[C@@H](CC(C)C)C(=O)N[C@@H](CCC(=O)O)C(=O)N[C@@H](CC(=O)O)C(=O)N[C@@H](CCC(=O)O)C(=O)N1CCC[C@H]1C(=O)N[C@@H](CO)C(=O)N[C@@H](CO)C(=O)NCC(=O)N[C@@H](CCCCN)C(=O)N1CCC[C@H]1C(=O)N1CCC[C@H]1C(=O)N1CCC[C@H]1C(=O)N[C@@H](CO)C(N)=O)C(C)C
Regarding B22, the “hGCGR pEC50 (cAMP)” value in assay [2] came to 13.6 pEC50. Besides, the “hGLP1 pEC50 (cAMP)” value in assay [1] is < 9 pEC50.
